Measurements from patent publication US9481899B2, “Methods and compositions for producing hydrocarbons” (priority 2008, dated 2016).

Tested on: E. coli MG1655
Test: Coexpression of decarbonylase and aldehyde-generating enzyme in E. coli, GC-MS of hydrocarbons
Type: cell-based
Conditions: for Production of Alkanes and Alkenes: alkane/alkene biosynthetic polypeptide coexpressed in E. coli with the aldehyde biosynthetic polypeptide of the same table row; for fatty aldehyde decarbonylase activity in E. coli: cotransformed with S. elongatus PCC7942_1594 into E. coli MG1655, M9 minimal media, 37° C.
Excerpt: Seven cyanobacteria, whose complete genome sequences are publicly available, were selected for verification and/or detection of alkane biosynthesis: Synechococcus elongatus PCC7942, Synechococcus elongatus PCC6301, Anabaena variabilis ATCC29413, Synechocystis sp. PCC6803, Nostoc punctiforme PCC73102, Gloeobacter violaceus ATCC 29082, and Prochlorococcus marinus CCMP1986. Only the first three cyanobacterial strains from this list had previously been reported to contain alkanes (Han et al., J. Am. Chem. Soc. 91:5156-5159 (1969); Fehler et al., Biochem. 9:418-422 (1970)). The strains were grown photoautotrophically in shake flasks in 100 mL of the appropriate media (listed in Table 8) for 3-7 days at 30° C. at a light intensity of approximately 3,500 lux. Cells were extracted for alkane detection as follows: cells from 1 mL culture volume were centrifuged for 1 min at 13,000 rpm, the cell pellets were resuspended in methanol, vortexed for 1 min and then sonicated for 30 min. After centrifugation for 3 min at 13,000 rpm, the supernatants were transferred to fresh vials and analyzed by GC-MS. The samples were analyzed on either 30 m DP-5 capillary column (0.25 mm internal diameter) or a 30 m high temperature DP-5 capillary column (0.25 mm internal diameter) using the following method.
After a 1 μL splitless injection (inlet temperature held at 300° C.) onto the GC/MS column, the oven was held at 100° C. for 3 mins. The temperature was ramped up to 320° C. at a rate of 20° C./min. The oven was held at 320° C. for an additional 5 min. The flow rate of the carrier gas helium was 1.3 mL/min. The MS quadrapole scanned from 50 to 550 m/z. Retention times and fragmentation patterns of product peaks were compared with authentic references to confirm peak identity.
The genomic DNA encoding Synechococcus elongatus PCC7942 orf1594 (YP_400611; putative aldehyde-generating enzyme) (SEQ ID NO:65) was amplified and cloned into the NcoI and EcoRI sites of vector OP-80 (pCL1920 derivative) under the control of the Ptrc promoter. The resulting construct (“OP80-PCC7942_1594”) was transformed into E. coli MG1655 and the cells were grown at 37° C. in M9 minimal media with 1% (w/v) glucose as carbon source and supplemented with 100 μg/mL spectinomycin. When the culture reached OD600 of 0.8-1.0, it was induced with 1 mM IPTG and cells were grown for an additional 18-20 h at 37° C. Cells from 0.5 mL of culture were extracted with 0.5 mL of ethyl acetate. After sonication for 60 min, the sample was centrifuged at 15,000 rpm for 5 min. The solvent layer was analyzed by GC-MS as described in Example 1.
The genomic DNA encoding Synechococcus elongatus PCC7942 orf1593 (YP_400610; putative decarbonylase) (SEQ ID NO:1) was amplified and cloned into the NdeI and XhoI sites of vector OP-183 (pACYC derivative) under the control of the Ptrc promoter. The resulting construct was cotransformed with OP80-PCC7942_1594 into E. coli MG1655 and the cells were grown at 37° C. in M9 minimal media supplemented with 100 μg/mL spectinomycin and 100 μg/mL carbenicillin. The cells were cultured and extracted as in Example 3 and analyzed by GC-MS as described in Example 1. […]

Row | Molecule | Production of Alkanes and Alkenes | fatty aldehyde decarbonylase activity in E. coli
1 | SEQ ID NO: 1: Synechococcus elongatus PCC7942 orf1593, putative decarbonylase | yes | active fatty aldehyde decarbonylase
2 | SEQ ID NO: 3: Synechocystis sp. PCC6803 sll0208, putative decarbonylase (protein, listed as Synechocystis sp.) MPELAVRTEFDYSSEIYKDAYSRINAIVIEGEQEAYSNYLQMAELLPEDKEELTRLAKMENRHKKGFQACGNNLQVNPDMPYAQEFFAGLHGNFQHAFSEGKVVTCLLIQALIIEAFAIAAYNIYIPVADDFARKITEGVVKDEYTHLNYGEEWLKANFATAKEELEQANKENLPLVWKMLNQVQGDAKVLGMEKEALVEDFMISYGEALSNIGFSTREIMRMSSYGLAGV | yes | 
3 | SEQ ID NO: 27: Cyanothece sp. ATCC51142 cce_0778, putative decarbonylase (protein, listed as Cyanothece sp.) MQELALRSELDFNSETYKDAYSRINAIVIEGEQEAYQNYLDMAQLLPEDEAELIRLSKMENRHKKGFQACGKNLNVTPDMDYAQQFFAELHGNFQKAKAEGKIVTCLLIQSLIIEAFAIAAYNIYIPVADPFARKITEGVVKDEYTHLNFGEVWLKEHFEASKAELEDANKENLPLVWQMLNQVEKDAEVLGMEKEALVEDFMISYGEALSNIGFSTREIMKMSAYGLRAA | yes | active fatty aldehyde decarbonylase
4 | SEQ ID NO: 31: Cyanothece sp. PCC7425 Cyan7425_2986, putative decarbonylase (protein, listed as Cyanothece sp.) MSDCATNPALDYYSETYRNAYRRVNGIVIEGEKQAYDNFIRLAELLPEYQAELTRLAKMEARHQKSFVACGQNLKVSPDLDFAAQFFAELHQIFASAANAGQVATCLVVQALIIECFAIAAYNTYLPVADEFARKVTASVVQDEYSHLNFGEVWLQNAFEQCKDEIITANRLALPLIWKMLNQVTGELRILGMDKASLVEDFSTRYGEALGQIGFKLSEILSLSVQGLQAVTP | yes | active fatty aldehyde decarbonylase
5 | SEQ ID NO: 13: Synechococcus sp. JA-3-3Ab CYA_0415, putative decarbonylase (protein, listed as Synechococcus sp.) MAPANVLPNTPPSPTDGGGTALDYSSPRYRQAYSRINGIVIEGEQEAHDNYLKLAEMLPEAAEELRKLAKMELRHMKGFQACGKNLQVEPDVEFARAFFAPLRDNFQSAAAAGDLVSCFVIQSLIIECFAIAAYNIYIPVADDFARKITEGVVKDEYLHLNFGERWLGEHFAEVKAQIEAANAQNLPLVRQMLQQVEADVEAIYMDREAIVEDFMIAYGEALASIGFNTREVMRLSAQGLRAA | yes | 
6 | SEQ ID NO: 51: Prochlorococcus mariunus NATL2A PMN2A_1863, putative decarbonylase, codon optimized for E. coli (protein, listed as Prochlorococcus marinus) MQAFASNNLTVEKEELSSNSLPDFTSESYKDAYSRINAVVIEGEQEAYSNFLDLAKLIPEHADELVRLGKMEKKHMNGFCACGRNLAVKPDMPFAKTFFSKLHNNFLEAFKVGDTTTCLLIQCILIESFAISAYHVYIRVADPFAKRITEGVVQDEYLHLNYGQEWLKANLETVKKDLMRANKENLPLIKSMLDEVSNDAEVLHMDKEELMEEFMIAYQDSLLEIGLDNREIARMALAAVI | yes | active fatty aldehyde decarbonylase
7 | SEQ ID NO: 29: Cyanothece sp. PCC7425 Cyan7425_0398, putative decarbonylase (protein, listed as Cyanothece sp.) MPQVQSPSAIDFYSETYQDAYSRIDAIVIEGEQEAHDNYLKLTELLPDCQEDLVRLAKMEARHKKGFEACGRNLKVTPDMEFAQQFFADLHNNFQKAAAANKIATCLVIQALIIECFAIAAYNIYIPVADDFARKITENVVKDEYTHLNFGEEWLKANFDSQREEVEAANRENLPIVWRMLNQVETDAHVLGMEKEALVESFMIQYGEALENIGFSTREIMRMSVYGLSAA | yes | active fatty aldehyde decarbonylase
8 | SEQ ID NO: 11: Thermosynechococcus elongatus BP-1 tll1313, putative decarbonylase (protein, listed as Thermosynechococcus elongatus) MTTATATPVLDYHSDRYKDAYSRINAIVIEGEQEAHDNYIDLAKLLPQHQEELTRLAKMEARHKKGFEACGRNLSVTPDMEFAKAFFEKLRANFQRALAEGKTATCLLIQALIIESFAIAAYNIYIPMADPFARKITESVVKDEYSHLNFGEIWLKEHFESVKGELEEANRANLPLVWKMLNQVEADAKVLGMEKDALVEDFMIQYSGALENIGFTTREIMKMSVYGLTGA | yes | active fatty aldehyde decarbonylase
9 | SEQ ID NO: 49: Prochlorococcus marinus MIT9313 PMT1231, putative decarbonylase, codon optimized for E. coli (protein, listed as Prochlorococcus marinus) MPTLEMPVAAVLDSTVGSSEALPDFTSDRYKDAYSRINAIVIEGEQEAHDNYIAIGTLLPDHVEELKRLAKMEMRHKKGFTACGKNLGVEADMDFAREFFAPLRDNFQTALGQGKTPTCLLIQALLIEAFAISAYHTYIPVSDPFARKITEGVVKDEYTHLNYGEAWLKANLESCREELLEANRENLPLIRRMLDQVAGDAAVLQMDKEDLIEDFLIAYQESLTEIGFNTREITRMAAAALVS | yes | active fatty aldehyde decarbonylase
